These results are taken from the RNAGym collection of RNA variant scans (doi:10.1093/molbev/msab373).

First the molecules themselves.
B1: Azoarcus group I ribozyme (parent)
chain: GUGCCUUGCGCCGGGAAACCACGCAAGGGAUGGUGUCAAAUUCGGCGAAACCUAAGCGCCCGCCCGGGCGUAUGGCAACGCCGAGCCAAGCUUCGGCGCCUGCGCCGAUGAAGGUGUAGAGACUAGACGGCACCCACCUAAGGCAAACGCUAUGGUGAAGGCAUAGUCCAGGGAGUGGCGAAAGUCACACAAACCGG

The variants in the series derive from B1. The series is described as follows: reverse-splicing fitness (ratio to wild type); higher = more active; in vitro selection; Mg2+ level not given. Summed up:
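An in vitro group I ribozyme library with randomized positions was T7-transcribed and gel-purified. In triplicate, 10 pmol RNA in EPPS pH 7.5 was reacted with 50 pmoles of a 30-nt RNA substrate for 1 h at 37 °C across several added MgCl2 levels (1–48 mM), then stopped with EDTA. Products were reverse transcribed from a substrate-complementary primer, PCR-amplified and sequenced (HiSeq 4000). Fitness is a variant's read proportion after selection over that before, normalised to wild type.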
Turning to C82A A111U A120U A145C C150A C169A U176C, the reverse-splicing fitness is 0.00299.

Regarding C82A A111U A120U A145C C150A C169A U176G, the reverse-splicing fitness is 0.00263.

Turning to C82A A111U A120U A145C C150A C169A U176A, the reverse-splicing fitness stood at 0.00272.

Turning to C82A A111U A120G A145C C150G U176G, the reverse-splicing fitness came out at 0.00318.

For the variant C82A A111U A120G A145C C150G U176A, the reverse-splicing fitness worked out at 0.00504.

With C82A A111U A120G A145C C150G U176C, the reverse-splicing fitness stood at 0.00759.

Regarding C82A A111U A120G A145G U176C, the reverse-splicing fitness is 0.0211.

C82A A111U A120G A145G U176G: the reverse-splicing fitness came to 0.00714.

Take C82A A111U A120G A145G U176A: the reverse-splicing fitness amounted to 0.0122.

For the variant C82A A111U A120U A145C C169A U176C, the reverse-splicing fitness is 0.00227.

For C82A A111U A120U A145C C169A U176G, the reverse-splicing fitness was determined as 0.00209.

For C82A A111U A120U A145C C169A U176A, the reverse-splicing fitness was determined as 0.00304.

Consider C82A A111U A120G C150U C169A, for which the reverse-splicing fitness stood at 0.0106.

In the case of C82A A111U A120G C150U C169G, the reverse-splicing fitness was determined as 0.0105.

For C82A A111U A120G C150U C169U, the reverse-splicing fitness was found to be 0.00932.

C82A A111U A120G C150G C169A U176A: the reverse-splicing fitness was determined as 0.0106.

In the case of C82A A111U A120G C150G C169A U176G, the reverse-splicing fitness came to 0.00672.

Regarding C82A A111U A120G C150G C169A U176C, the reverse-splicing fitness was found to be 0.00965.

On to C82A A111U A120G C169A U176C, for which the reverse-splicing fitness is 0.0218.

As to C82A A111U A120G C169A U176A, the reverse-splicing fitness stood at 0.0188.

As for C82A A111U A120G C169A U176G, the reverse-splicing fitness came out at 0.00506.

As for C82A A111U A120U A145C C150A C169G, the reverse-splicing fitness was 0.00256.

Take C82A A111U A120U A145C C150A C169A: the reverse-splicing fitness worked out at 0.00277.

Regarding C82A A111U A120U A145C C150A C169U, the reverse-splicing fitness was determined as 0.00267.

For the variant C82A A111U A120G A145G C150A C169U U176G, the reverse-splicing fitness was determined as 0.0069.

Consider C82A A111U A120G A145G C150A C169U U176C, for which the reverse-splicing fitness is 0.0167.

On to C82A A111U A120G A145G C150A C169U U176A, for which the reverse-splicing fitness came out at 0.0197.

Regarding C82A A111U A120G A145U C150U C169U U176A, the reverse-splicing fitness is 0.0207.

For C82A A111U A120G A145U C150U C169U U176C, the reverse-splicing fitness is 0.0148.

Turning to C82A A111U A120G A145U C150U C169U U176G, the reverse-splicing fitness came to 0.00524.

On to C82A A111U A120U A145G C150U C169A U176C, for which the reverse-splicing fitness turned out to be 0.00423.

For the variant C82A A111U A120U A145G C150U C169A U176A, the reverse-splicing fitness is 0.00815.

Take C82A A111U A120U A145G C150U C169A U176G: the reverse-splicing fitness came out at 0.00259.

C82A A111U A120G A145G C150A U176A: the reverse-splicing fitness stood at 0.0111.

C82A A111U A120G A145G C150A U176C: the reverse-splicing fitness was found to be 0.0209.

On to C82A A111U A120G A145G C150A U176G, for which the reverse-splicing fitness turned out to be 0.00816.

Turning to C82A A111U A120U A145C C150G C169G U176G, the reverse-splicing fitness is 0.00242.

As to C82A A111U A120U A145C C150G C169G U176C, the reverse-splicing fitness is 0.0024.

Regarding C82A A111U A120U A145C C150G C169G U176A, the reverse-splicing fitness came out at 0.00351.

For the variant C82A A111U A120U A145C C169G U176C, the reverse-splicing fitness was found to be 0.00232.

In the case of C82A A111U A120U A145C C169G U176A, the reverse-splicing fitness amounted to 0.00281.

Regarding C82A A111U A120U A145C C169G U176G, the reverse-splicing fitness is 0.00198.

In the case of C82A A111U A120G A145C C150U C169A U176C, the reverse-splicing fitness was determined as 0.00677.

In the case of C82A A111U A120G A145C C150U C169A U176G, the reverse-splicing fitness worked out at 0.00508.

For C82A A111U A120G A145C C150U C169A U176A, the reverse-splicing fitness is 0.0127.

Turning to C82A A111U A120U A145G C150U C169A, the reverse-splicing fitness was found to be 0.00728.

For C82A A111U A120U A145G C150U C169U, the reverse-splicing fitness amounted to 0.00663.

Take C82A A111U A120U A145G C150U C169G: the reverse-splicing fitness was 0.00728.

Turning to C82A A111U A120U A145C C150U, the reverse-splicing fitness was found to be 0.00779.

Turning to C82A A111U A120U A145C C150A, the reverse-splicing fitness came to 0.00524.

In the case of C82A A111U A120U A145C C150G, the reverse-splicing fitness turned out to be 0.0059.

As to C82A A111U A120G C150A C169U U176C, the reverse-splicing fitness was found to be 0.02.

Take C82A A111U A120G C150A C169U U176A: the reverse-splicing fitness was 0.021.

Consider C82A A111U A120G C150A C169U U176G, for which the reverse-splicing fitness was 0.00816.

C82A A111U A120G U176C: the reverse-splicing fitness stood at 0.0189.

Consider C82A A111U A120G U176G, for which the reverse-splicing fitness came to 0.00705.

On to C82A A111U A120G U176A, for which the reverse-splicing fitness worked out at 0.0127.

Consider C82A A111U A120G A145C C169A U176G, for which the reverse-splicing fitness is 0.0048.

With C82A A111U A120G A145C C169A U176A, the reverse-splicing fitness stood at 0.0141.

Consider C82A A111U A120G A145C C169A U176C, for which the reverse-splicing fitness came to 0.00818.

As to C82A A111U A120G A145U C150U C169G U176A, the reverse-splicing fitness was determined as 0.0153.

Consider C82A A111U A120G A145U C150U C169G U176G, for which the reverse-splicing fitness was determined as 0.00527.

In the case of C82A A111U A120G A145U C150U C169G U176C, the reverse-splicing fitness turned out to be 0.0147.

As to C82A A111U A120G A145C C150U, the reverse-splicing fitness came to 0.00935.

Turning to C82A A111U A120U A145C C150A U176A, the reverse-splicing fitness was found to be 0.00368.

Regarding C82A A111U A120U A145C C150A U176G, the reverse-splicing fitness stood at 0.00255.

C82A A111U A120U A145C C150A U176C: the reverse-splicing fitness was 0.00426.

Turning to C82A A111U A120U A145C C169U, the reverse-splicing fitness turned out to be 0.00338.

As to C82A A111U A120U A145C C169G, the reverse-splicing fitness stood at 0.00342.

Take C82A A111U A120U A145C C169A: the reverse-splicing fitness worked out at 0.00224.

With C82A A111U A120G A145C C169U, the reverse-splicing fitness stood at 0.00838.

With C82A A111U A120G A145C C169G, the reverse-splicing fitness worked out at 0.0105.

Take C82A A111U A120G A145C C169A: the reverse-splicing fitness is 0.0074.

Take C82A A111U A120G A145G C169U U176G: the reverse-splicing fitness is 0.00504.

With C82A A111U A120G A145G C169U U176C, the reverse-splicing fitness was found to be 0.0167.

As for C82A A111U A120G A145G C169U U176A, the reverse-splicing fitness came out at 0.0211.

For the variant C82A A111U A120G A145G C150G C169A U176C, the reverse-splicing fitness came to 0.0133.

On to C82A A111U A120G A145G C150G C169A U176A, for which the reverse-splicing fitness stood at 0.0132.

For the variant C82A A111U A120G A145G C150G C169A U176G, the reverse-splicing fitness was found to be 0.00821.

Take C82A A111U A120G A145C C150U C169G U176C: the reverse-splicing fitness was 0.0134.

Turning to C82A A111U A120G A145C C150U C169G U176A, the reverse-splicing fitness came to 0.0224.

On to C82A A111U A120G A145C C150U C169G U176G, for which the reverse-splicing fitness is 0.00608.

As for C82A A111U A120G A145G C150A C169A U176G, the reverse-splicing fitness is 0.00817.
